System: peptide library, one residue held at a place counted from the S/T acceptor
Test: relative phosphorylation of the sub-library (ratio to the mean residue at this position); higher = residue favoured
Conditions: human
Method in brief: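 In 384-well plates, purified recombinant kinases (human or orthologue constructs) were incubated for 90 min under kinase-specific conditions with 50 μM biotinylated degenerate peptide sub-libraries and 50 μM ATP spiked with γ-32P-ATP. Each sub-library fixed a single residue at one position around a central Ser/Thr. Relative sub-library phosphorylation, measured by phosphorimaging and densitometry of streptavidin membrane spots, is given as a ratio to the mean residue at that position.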

Sequence of MAPK12, construct: Full length (P53778 whole entry, looked up): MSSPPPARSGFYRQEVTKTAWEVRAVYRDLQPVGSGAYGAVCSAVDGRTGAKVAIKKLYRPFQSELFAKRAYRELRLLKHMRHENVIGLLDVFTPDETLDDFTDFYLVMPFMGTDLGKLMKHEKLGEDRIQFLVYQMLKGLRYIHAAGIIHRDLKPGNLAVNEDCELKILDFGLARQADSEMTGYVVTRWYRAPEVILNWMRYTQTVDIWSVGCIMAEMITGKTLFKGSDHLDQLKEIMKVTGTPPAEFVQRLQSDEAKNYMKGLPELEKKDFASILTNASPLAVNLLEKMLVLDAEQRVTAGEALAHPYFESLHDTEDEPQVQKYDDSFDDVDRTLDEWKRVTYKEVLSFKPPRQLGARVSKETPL

MAPK12, construct: Full length (from UniProt P53778)
relative phosphorylation
Conditions	at +1	at +2	at +3	at +4	at -1	at -2	at -3	at -4	at -5
A fixed	0.289	1.22	1.13	1.01	1.21	1.66	1.13	1.19	1.07
D fixed	0.0904	0.475	0.864	0.879	0.738	0.789	1.23	1.28	1.22
E fixed	0.0906	0.374	0.973	0.872	0.905	0.822	1.41	1.21	1.14
F fixed	0.153	0.77	0.897	1.1	0.582	0.444	0.622	0.672	0.818
G fixed	0.644	1.1	1.36	1.23	1.36	1.14	1.98	1.44	1.34
H fixed	0.183	1.38	1.26	1	1.17	0.584	1.23	1.04	1.16
I fixed	0.187	1.31	0.697	0.881	0.542	0.946	0.712	0.774	0.715
K fixed	0.152	1.08	0.962	0.931	1.04	0.433	0.761	1.12	1.28
L fixed	0.198	0.947	0.845	0.994	1.03	1.31	0.643	0.855	0.733
M fixed	0.17	0.878	0.851	1.15	1.27	1.16	0.838	0.949	0.83
N fixed	0.108	0.806	0.852	0.821	0.878	0.819	1.01	1.07	1.03
P fixed	13.8	0.539	1.33	1.11	1.37	3.27	1.33	1.11	1.27
Q fixed	0.141	0.914	0.934	0.921	1.13	0.742	0.918	0.916	0.937
R fixed	0.174	1.84	1.28	0.908	1.48	0.664	1.05	1.03	1.06
V fixed	0.302	1.36	0.855	0.89	0.611	1.31	0.649	0.654	0.823
W fixed	0.181	0.851	0.894	1.18	0.674	0.457	0.674	0.869	0.725
Y fixed	0.159	1.15	1.02	1.12	1.01	0.446	0.802	0.827	0.859
pThr fixed	0.509	1.04	0.824	0.669	0.457	0.823	1.27	1.15	1.42
pTyr fixed	0.52	0.799	0.925	0.686	0.878	1.11	1.56	1.28	1.44

— the supplement of paper PMC9876800
